Experimental data as given in patent publication US20250114450A1 (AKESO BIOPHARMA, published 2025).

Molecular target: T1, FcγRI (UniProt P12314 16-288, limits assumed)
T1 construct: construct not described; also called CD64; FcγRIa
Test: BLI (Fortebio Octet), FcγRI immobilized on HIS1K sensor, antibody 3.12-50 nM, 1:1 fit
Experimental: 1 μg/mL FcγRIa was immobilized on the HIS1K sensor for 50 s. The sensor was equilibrated in a buffer for 60 s, and the binding of the immobilized CD64 on the sensor to the antibodies at concentrations of 3.12-50 nM (two-fold dilution) was determined for 120 s. The antibody was dissociated in the buffer for 120 s. The sensor was refreshed 4 times in 10 mM glycine pH 1.5, each for 5 s. The detection temperature was 30° C. and the frequency was 0.3 Hz. The data were analyzed by 1:1 model fitting to obtain affinity constants.

T1 sequence (P12314 16-288 limits assumed): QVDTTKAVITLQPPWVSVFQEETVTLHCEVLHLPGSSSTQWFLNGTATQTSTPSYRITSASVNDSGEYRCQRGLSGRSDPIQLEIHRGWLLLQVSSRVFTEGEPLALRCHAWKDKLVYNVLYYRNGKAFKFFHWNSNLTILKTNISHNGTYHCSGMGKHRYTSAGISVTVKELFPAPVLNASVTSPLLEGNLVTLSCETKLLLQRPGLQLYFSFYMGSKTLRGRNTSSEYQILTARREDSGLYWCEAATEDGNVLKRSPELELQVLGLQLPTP

B1: Bevacizumab (antibody, human IgG1, kappa)
heavy: not shown
light: not shown
notes: also called Avastin; anti-VEGFA monoclonal antibody
Kd: 3.68 nM
